Assay results as given in patent US20240299584A1, “NON-CODING RNA PROTECTING AGAINST HEART FAILURE” (MEDIZINISCHE HOCHSCHULE HANNOVER, priority 2019, published 2024).

Experiments:
apoptotic cardiomyocytes = assay: TUNEL and cardiac troponin T co-staining of heart sections; type: in vivo, mouse; conditions: transversal heart sections, doxorubicin model; circINSR given as AAV9
Method: (§1) In addition to apoptosis, doxorubicin is known to cause cardiomyocyte atrophy^12 (G). Thus, histopathology analyses were performed on transversal heart section.
Cells were fixed with 4% paraformaldehyde for twenty minutes at room temperature and then permeabilized with ice-cold 0.1% Triton-X-100 in PBS for two minutes at room temperature. Next cells were incubated with enzyme labelling solution provided with In Situ cell death detection kit (Roche) for 1 hour at 37° C. For negative staining, enzyme was not added to the labelling solution. Cells were then washed and incubated with Dapi for 15 minutes. To specifically label neonatal rat cardiomyocytes and hipsc-CM, cells were co-stained with cardiac Troponin T (Thermofisher) after Tunel staining. Images were taken with Nikon Eclipse Ti microscope and images were analyzed with NIS Elements. For analysis in each case, ten different images were analyzed from different regions and average value was taken. Similarly, cryosections of heart were also processed for staining. Numerous images covering complete heart section was taken and Tunel positive nuclei were counted in each field. Average value for each heart was calculated.

HL-1 cells [1] = assay: WST-1 assay (cell viability); type: cell-based, mouse; conditions: HL-1 cells treated with doxorubicin 0.25 μM 48 h
Method: (§2) HL-1 cells were cultured in Claycomb medium together with 10% FBS, norepinephrine, L-Glutamine and pencillin/streptomycin as manufacturer's protocol. 3T3 and RAW264.7 cells were cultured in DMEM with 10% FBS and pencillin/streptomycin. Neonatal rat cardiomyocytes (NRCM) were isolated from one to three-day old rat babies by using the Neonatal Heart Dissociation Kit (Miltenyi). Human iPSC derived cardiomyocytes (hiPSC-cm) were differentiated at the lab of IMTTS. All the cells were treated with 0.25 μM Doxorubicin (Sigma-Aldrich) for 48 hours. circ-Insr siRNA (Eurofins), in vitro circular RNA and overexpression plasmid were transfected with Lipofectamine 2000 (Life Technologies) in OptiMEM medium. NRCM and hipsc-CM were transduced by AAV6 (MOI: 1*10^4) for 72 hours.
WST-1 assay was performed using Cell Proliferation Reagent WST-1 (Roche) as per the manufacturer instruction. Briefly, HL-1 cells were seeded in 96 well plate and next day treated with 0.25 μM Doxorubicin in normal medium with 10% FBS for forty-eight hours. Next, 10 μL WST1 reagent was added and incubated for 1 hour followed by the absorbance measurement (450 nm) at HT Synergy (Biotek) plate reader.

HL-1 cells [2] = assay: Annexin V & 7-AAD staining (apoptosis); type: cell-based, mouse; conditions: HL-1 cells treated with doxorubicin 0.25 μM 48 h
Method: as §2
FlowCellect Annexin Red kit (Millipore) was used to stain apoptotic cells as per the manufacturer instruction. Briefly, cells were seeded in 12 well plate and next day treated with 0.25 μM Doxorubicin in normal medium with 10% FBS for forty-eight hours. Then cells were trypsinized and harvested and stained with Annexin-V for 15 minutes at 37° C. in 1× assay buffer. Annexin-V stained cells were centrifuged and washed with 1× assay buffer. Next cells were incubated with 7-AAD for 5 minutes and acquired on Guava (Millipore) flow cytometer. Data was analyzed with FLOWJO software.

HL-1 cells [3] = assay: Analysis of mitochondrial fission (MitoTracker); type: cell-based, mouse; conditions: doxorubicin 0.25 μM 48 h, circ-Insr by overexpression plasmid vs negative control
Method: Based on the results of the foregoing examples, it was reasoned that circ-Insr could interact with SSBP1. To further confirm the interaction between circ-Insr and SSBP1, siRNA mediated circ-Insr knock-down was applied in HL-1 cells. Next, RNA pulldown was performed with circ-Insr and scramble biotinylated probes. RT-qPCR confirmed that decrease of circ-Insr appeared both in input and circ-Insr pulldown group (FIG. 23A). […] Therefore, we assumed that circ-Insr is a cofactor of SSBP1 resulting in the regulation of mitochondrial function in cardiomyocytes by stabilizing mtDNA. […] Furthermore, mito-damage assay was applied to measure the changes in mitochondrial membrane potential (MMP). […]
Mitochondrial fission was analysed by staining mitochondria via MitoTracker® Deep Red FM (Cell Signalling) (Aung L H H, Li R B, Prabhakar B S, Maker A V, Li P F. Mitochondrial protein 18 (MTP18) plays a pro-apoptotic role in chemotherapy-induced gastric cancer cell apoptosis. Oncotarget. 2017; 8:56582-97). […] Mitochondria were imaged using Nikon Eclipse Ti microscope with 60× oils Objective (CFI Plan Apo Lambda 60× Oil) and images were analyzed with NIS Elements. To quantitatively analyse cells with mitochondria fission, those cells with disintegrated mitochondria were considered as fission. The total cell numbers were counted via Hochest 33342. […] More than 150 cells in 10-15 random fields were counted.

cardiomyocytes = assay: Cardiomyocyte size on wheat germ agglutinin stained heart sections; type: in vivo, mouse; conditions: WGA stained heart sections, doxorubicin model; circINSR given as AAV9
Method: as §1
Cryosections of heart were stained with Alexa Fluor 488 labelled wheat germ agglutinin (Invitrogen) and dapi. Images were taken with Nikon Eclipse Ti microscope and images were analyzed with NIS Elements. For each heart 5 to 10 images were randomly taken from different regions of the section and minimum two hundred cells were measured and average value was taken for each heart.

B1: circINSR: circRNA formed through backsplicing of the second exon of the insulin receptor gene transcript; overexpressed from plasmid or AAV (nucleic acid, listed as Homo sapiens)
chain: UGUGUCCCGGCAUGGAUAUCCGGAACAACCUCACUAGGUUGCAUGAGCUGGAGAAUUGCUCUGUCAUCGAAGGACACUUGCAGAUACUCUUGAUGUUCAAAACGAGGCCCGAAGAUUUCCGAGACCUCAGUUUCCCCAAACUCAUCAUGAUCACUGAUUACUUGCUGCUCUUCCGGGUCUAUGGGCUCGAGAGCCUGAAGGACCUGUUCCCCAACCUCACGGUCAUCCGGGGAUCACGACUGUUCUUUAACUACGCGCUGGUCAUCUUCGAGAUGGUUCACCUCAAGGAACUCGGCCUCUACAACCUGAUGAACAUCACCCGGGGUUCUGUCCGCAUCGAGAAGAACAAUGAGCUCUGUUACUUGGCCACUAUCGACUGGUCCCGUAUCCUGGAUUCCGUGGAGGAUAAUUACAUCGUGUUGAACAAAGAUGACAACGAGGAGUGUGGAGACAUCUGUCCGGGUACCGCGAAGGGCAAGACCAACUGCCCCGCCACCGUCAUCAACGGGCAGUUUGUCGAACGAUGUUGGACUCAUAGUCACUGCCAGAAAG
modifications: circular RNA; RNA sequence
notes: circRNA formed through backsplicing of the second exon of the insulin receptor gene transcript; overexpressed from plasmid or AAV
For B1, the “apoptotic cardiomyocytes (TUNEL / cTNT)” value (apoptotic cardiomyocytes) was “significantly blunted”, the “cell viability (WST-1)” value (HL-1 cells [1]) was “enhanced cell viability” and the “cell viability (WST-1)” value (HL-1 cells [1]; listed as circ-Insr) was “enhance the cell survival”. The “apoptotic cells (Annexin V)” value (HL-1 cells [2]) was “significantly lower levels of apoptosis”, the “percentage of cells undergoing mitochondrial fission” value (HL-1 cells [3]) was “significantly reduce” and the cardiomyocyte size (cardiomyocytes) was “indistinguishable from control mice”.
